In the DeepSol protein solubility set:

test: soluble on expression in E. coli; label from the status in PepcDB or PDB records

Row | Sequence | soluble on expression in E. coli
1 | EPKLDMNKQKISPAEVAKHNKPDDCWVVINGYVYDLTRFLPNHPGGQDVIKFNAGKDVTAIFEPLHAPNVIDKYIAPEKKLGPLQGSMPPELVCPPYAPGETKEDIARKEQLKSLLPPLDNIINLYDFEYLASQTLTKQAWAYYSSGANDEVTHRENHNAYHRIFFKPKILVDVRKVDISTDMLGSHVDVPFYVSATALCKLGNPLEGEKDVARGCGQGVTKVPQMISTLASCSPEEIIEAAPSDKQIQWYQLYVNSDRKITDDLVKNVEKLGVKALFVTVDAPSLGQREKDMKLKFSNTKAGPKAMKKTNVEESQGASRALSKFIDPSLTWKDIEELKKKTKLPIVIKGVQRTEDVIKAAEIGVSGVVLSNHGGRQLDFSRAPIEVLAETMPILEQRNLKDKLEVFVDGGVRRGTDVLKALCLGAKGVGLGRPFLYANSCYGRNGVEKAIEILRDEIEMSMRLLGVTSIAELKPDLLDLSTLKARTVGVPNDVLYNEVYEGPTLTEFEDA | soluble
2 | MGTIGKKAAKGASVKFSESSTQAVIKATYLQVFGRDVYEGQRLKVQEIKLENGEISVRDFVRALAKSDLFRKLYWTPFYVCKAIEYIHRRLLGRPTYGRQENNKYFDIASKKGLYAVVDAILDSLEYTETFGEDTVPYERYLTPAGLEHHHHHH | not soluble
3 | MGSDKIHHHHHHMIDFDSLTHDQQLGILQETAEAATANYDLPADVSVDMINLSENATYKIAARDGRRWALRIHRDGYHSRTAIQSELAWLTDLRQTGIVLTPVPVAGKDGEQIQRVGHARLAQPRHVVLSQWETGSEPGIGEALGEPFELLGEVTARMHIHARQWKRPSWFSRHVWDFETSLGEERPHWGRWRDGIGVDAAKARLFGRTAELIGRRLAAFGKGHDRFGLIHCDLRLANLLIDGKTVKVIDFDDCGFGWYMYDAATPISFYEHEPQAADLIRSWTTGYRRVLDLPKADEDEIPTFVMLRRLLLVAWIGSHAETDLAKSMGLPYTEGTVGLCEAYLSKF | not soluble
4 | MESISRSPRIFLLSLGRWNSGISVCWYSPRHPRAIISDPAPRIAREHATVLFGDSHASEENNAARRRNFHNKKTSRGGNDDKQSRGNNAEKRKRRDPMTSQGPDSDEDELQEMTNKDRLKRAKRKGIDPMDPGAHGGAPVEKWSDGLRVDHVTGADVTAGGPLFQQRPYPAPGAILRKHKPQDEEDDQQFNFLKSF | not soluble
5 | GSHMASKISDNVRIKLYMEGTVNNHHFMCEAEGEGKPYEGTQMENIKVTKGGPLPFSFDILTPNCQYGSVAITKYTSGIPDYFKQSFPEGFTWERTTIYEDGAYLTTQQETKLDGNCLVYNIKILGCNFPPNGPVMQKKTQGWEPCCEMRYTRDGVLCGQTLMALKCADGNHLTCHLRTTYRSKKAAKALQMPPFHFSDHRPEIVKVSENGTLFEQHESSVARYCQTCPSKLGHN | soluble
6 | MGSDKIHHHHHHMMAVLHRSSDIIAATICRILIPQFYSDNTVPINGNYSCIFLLSYMFPLDSPLLADLYKKYRSRLISRIARLTGCRETAADLAQDAYMRLLDQTGVACPSNPAAYLFRIGRNLAIDHQRRPDFRQHDETSFEEELPSSFSGLDQQAVYRQECEQLWTAIMELPRPVSRALVLSVIEGVSQAAIAEELGVTERTVRRYISKGMAHCQRRLRNPLPPARYDR | not soluble
7 | MSLNGSSIIEFEDMTWSQQVEDSKKPVVVMFYSPACPYCKAMEPYFEEYAKEYGSSAVFGRINIATNPWTAEKYGVQGTPTFKFFCHGRPVWEQVGQIYPSILKNAVRDMLQHGEECIRKSTPVGQDITGYVEGHHHHHH | soluble
8 | MRIHAFHRLYQYRQSISTKPFNARGCKVQRCPFCQVSEQHCLCELQPDIDSNVACMLIVSENEVFKPSNTGRLIADTVKETYVYQWNRTEPSQEMLDLLSNEDYLPVIVFPADYVDQPERLLDGLHTEHLHRTDGNSKKWLLIFIDGSWREARKIFRRSEFLQSLPVLSIEPECLSEYIMRRSENEQHLSTAEVATLVLKQAGENKASECLQLWFEAFRETYMLTKTRVKNDPNRPHLKRFKEWLKTESLEHHHHHH | not soluble
9 | MGSDKIHHHHHHMNVTLRQLQAFIAVAELGRFHLAADHLGLTQSAISILIKDLEVALKHRLFDRHTRMVSLTTAGAEFLPQARKIMSDLEIAVANVHELASLQRGRVTIAAAIVLAATLLPPVIARFVKRYPDISVQVRDMPEEEIRSALKRNEADLGIGTVSADDPEIQASVLMRDQLTLICRSDHRFAKARQVSWASLAGEGVIGLAKDNPLRGLVDRALIASGVEVKTRYEVRFSTTAISMVAEGLGIAILPENSRQLTTNVDVRIVELVDPVISRNISILQYRQPMLSPAAAKMKEFLMGASRKLS | not soluble
10 | MGSDKIHHHHHHMIIQRVVLNSRPGKNGNPVAENFRVEEFSLLDALNEGQVQVRTLYLSVDPYMRCKMNEDTGTDYLAPWQLAQVADGGGIGIVEESKHQKLAKGDFVTSFYWPWQTKAILDGNGLEKVDPQLVDGHLSYFLGAIGMPGLTSLIGVQEKGHISAGSNQTMVVSGAAGACGSLAGQIGHLLGCSRVVGICGTQEKCLFLTSELGFDAAVNYKTGNVAEQLREACPGGVDVYFDNVGGDISNTVISQMNENSHIILCGQISQYNKDVPYPPPLPPAVEAIRKERNITRERFTVLNYKDKFEPGILQLSQWFKEGKLKVKETVAKGLENMGVAFQSMMTGGNVGKQIVCISEDSSL | soluble
11 | QVSDEDVMLMIRQGAKKGVFESVEYEMISRIFRMSDKRASALMTPRNEIEWLDLERPDEELVARIKASGRSRFPVAKGSLDELQGVVRSLDLVNFSLSSKGSIREAIRASMKPPLFVPESVPAFHVLELFKKNRAHMALVIDEHGSVQGAITLTDVLESIVGDVPADDMEGD | not soluble
12 | MGSDKIHHHHHHMKKIPCVMMRGGTSRGAFLLAEHLPEDQTQRDKILMAIMGSGNDLEIDGIGGGNPLTSKVAIISRSSDPRADVDYLFAQVIVHEQRVDTTPNCGNMLSGVGAFAIENGLIAATSPVTRVRIRNVNTGTFIEADVQTPNGVVEYEGSARIDGVPGTAAPVALTFLNAAGTKTGKVFPTDNQIDYFDDVPVTCIDMAMPVVIIPAEYLGKTGYELPAELDADKALLARIESIRLQAGKAMGLGDVSNMVIPKPVLISPAQKGGAINVRYFMPHSCHRALAITGAIAISSSCALEGTVTRQIVPSVGYGNINIEHPSGALDVHLSNEGQDATTLRASVIRTTRKIFSGEVYLP | not soluble
13 | SLVTRVTLAPGVRVMVAPYPPFLLPLQGRLNCLYMRLRSPVVVPPGDSFSIELKVPFDIAVIASSKGRHTLIDFFPPGGVVPKMAVYGSNVEGLLCRFWRDEWRGPAASARLTIVNNADVQATVSRVVLPRRGLSMFYNPVTGGIAASPIRMSVRDIDSADVWLEEAEPGEGFIEVPLVERDRRLFEALGPLVPGRIAMIWGI | not soluble
14 | MKRAFIMVLDSFGIGATEDAERFGDVGADTLGHIAEACAKGEADNGRKGPLNLPNLTRLGLAKAHEGSTGFIPAGMDGNAEVIGAYAWAHEMSSGKDTPSGHWEIAGVPVLFEWGYFSDHENSFPQELLDKLVERANLPGYLGNCHSSGTVILDQLGEEHMKTGKPIFYTSADSVFQIACHEETFGLDKLYELCEIAREELTNGGYNIGRVIARPFIGDKAGNFQRTGNRHDLAVEPPAPTVLQKLVDEKHGQVVSVGKIADIYANCGITKKVKATGLDALFDATIKEMKEAGDNTIVFTNFVDFDSSWGHRRDVAGYAAGLELFDRRLPELMSLLRDDDILILTADHGCDPTWTGTDHTREHIPVLVYGPKVKPGSLGHRETFADIGQTLAKYFGTSDMEYGKAMF | not soluble
15 | MILRYATNLKLAKELYQASKPKLQEDKGMIELFEHTFGLQKELVKYVGIAEATTAALYSASFINKNISRLASLSTIGILSVAAYKHFEAGQGKKGAQHALDLLGLATLSLLDTFSCNKKLEHHHHHH | not soluble
